Numbered stars: 1 amine (or outer) side, 2 acyl side, 3 side chain; on linkers, the order of the positions; unused ones are H or OH. Bridge positions count the residues as written; N and C are the ends. Side chains are listed from the residue outwards. Ends that are not written are not given here. * marks the point of attachment. C20 diacid = O=C(O)CCCCCCCCCCCCCCCCCCC(=O)*; γGlu = O=C(O)[C@H](CCC(=O)[*:2])N[*:1]; AEEA = NCCOCCOCC(=O)O

Experiment [1] addresses T1, human calcitonin receptor (human, UniProt P30988 25-474).
T1 construct: whole, on cells; also called hCTR; hCT
T1 sequence (looked up): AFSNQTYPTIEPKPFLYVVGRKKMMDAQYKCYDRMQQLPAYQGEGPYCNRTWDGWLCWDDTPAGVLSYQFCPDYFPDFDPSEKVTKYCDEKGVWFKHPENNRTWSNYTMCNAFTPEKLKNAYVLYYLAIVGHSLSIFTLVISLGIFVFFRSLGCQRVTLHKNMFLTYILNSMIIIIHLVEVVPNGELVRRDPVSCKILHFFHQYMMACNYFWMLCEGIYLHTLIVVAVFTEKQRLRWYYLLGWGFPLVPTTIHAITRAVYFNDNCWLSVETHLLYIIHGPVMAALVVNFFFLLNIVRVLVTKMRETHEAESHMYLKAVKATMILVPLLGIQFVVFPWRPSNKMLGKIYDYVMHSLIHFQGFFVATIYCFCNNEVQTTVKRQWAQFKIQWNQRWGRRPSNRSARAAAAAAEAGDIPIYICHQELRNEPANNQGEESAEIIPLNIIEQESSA
Nature of the experiment: ratio of IC50 at human calcitonin receptor to IC50 at human amylin receptor (SPA competition assays). The procedure, abridged:
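Membranes (35 ng/μL final) + SPA beads, 50 mM Hepes pH 7.4 buffer with 1 mM CaCl2, 5 mM MgCl₂, 0.1% OA, 0.02% Tween20; 120 min, 25° C, shaking; centrifuged, counted; IC₅₀ by one-site binding competition.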

Experiment [2] concerns the target T1, human calcitonin receptor. Put plainly: SPA radioligand competition (125I-calcitonin), membranes of BHK cells with human calcitonin receptor. Summed up: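 BHK hCTR membranes 35 ng/μL + SPA beads 0.05 mg/well; buffer 50 mM Hepes pH 7.4, 1 mM CaCl2, 5 mM MgCl₂, 0.1% OA, 0.02% Tween20. 120 min, 25° C., shaking. Scintillation count; IC50 by one-site binding competition.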
(In general: Loss of bound radioactivity is the signal in a displacement assay; it reports binding, not function.)

B1: N^ε1-[2-[2-[2-[[(4S)-4-carboxy-4-(19-carboxynonadecanoylamino)butanoyl]amino]ethoxy]ethoxy]acetyl]-[His14,Arg17,Pro21,Pro27]-h-amylin (peptide)
peptide: K([AEEA-γGlu-C20 diacid])CNTATCATQRLAHFLRHSSPNFGAIPSSTNVGSNTY-NH2
modifications: disulfide 2-7; N-terminus assumed
SMILES: CC[C@H](C)[C@H](NC(=O)[C@H](C)NC(=O)CNC(=O)[C@H](Cc1ccccc1)NC(=O)[C@H](CC(N)=O)NC(=O)[C@@H]1CCCN1C(=O)[C@H](CO)NC(=O)[C@H](CO)NC(=O)[C@H](Cc1c[nH]cn1)NC(=O)[C@H](CCCNC(=N)N)NC(=O)[C@H](CC(C)C)NC(=O)[C@H](Cc1ccccc1)NC(=O)[C@H](Cc1c[nH]cn1)NC(=O)[C@H](C)NC(=O)[C@H](CC(C)C)NC(=O)[C@H](CCCNC(=N)N)NC(=O)[C@H](CCC(N)=O)NC(=O)[C@@H](NC(=O)[C@H](C)NC(=O)[C@@H]1CSSC[C@H](NC(=O)[C@@H](N)CCCCNC(=O)COCCOCCNC(=O)CC[C@H](NC(=O)CCCCCCCCCCCCCCCCCCC(=O)O)C(=O)O)C(=O)N[C@@H](CC(N)=O)C(=O)N[C@@H]([C@@H](C)O)C(=O)N[C@@H](C)C(=O)N[C@@H]([C@@H](C)O)C(=O)N1)[C@@H](C)O)C(=O)N1CCC[C@H]1C(=O)N[C@@H](CO)C(=O)N[C@@H](CO)C(=O)N[C@H](C(=O)N[C@@H](CC(N)=O)C(=O)N[C@H](C(=O)NCC(=O)N[C@@H](CO)C(=O)N[C@@H](CC(N)=O)C(=O)N[C@H](C(=O)N[C@@H](Cc1ccc(O)cc1)C(N)=O)[C@@H](C)O)C(C)C)[C@@H](C)O
notes: also called compound 69
Turning to B1, the “Ratio hCT/hAmylin binding” value in experiment [1] came to 65.3. Also, the IC50 in experiment [2] was 0.00868 µM.

B2: N^ε1-[2-[2-[2-[[(4S)-4-carboxy-4-(19-carboxynonadecanoylamino)butanoyl]amino]ethoxy]ethoxy]acetyl]-[Lys14,Arg17,Pro21,Pro27,Pro31]-h-amylin (peptide)
peptide: K([AEEA-γGlu-C20 diacid])CNTATCATQRLAKFLRHSSPNFGAIPSSTPVGSNTY-NH2
modifications: disulfide 2-7; N-terminus assumed
SMILES: CC[C@H](C)[C@H](NC(=O)[C@H](C)NC(=O)CNC(=O)[C@H](Cc1ccccc1)NC(=O)[C@H](CC(N)=O)NC(=O)[C@@H]1CCCN1C(=O)[C@H](CO)NC(=O)[C@H](CO)NC(=O)[C@H](Cc1c[nH]cn1)NC(=O)[C@H](CCCNC(=N)N)NC(=O)[C@H](CC(C)C)NC(=O)[C@H](Cc1ccccc1)NC(=O)[C@H](CCCCN)NC(=O)[C@H](C)NC(=O)[C@H](CC(C)C)NC(=O)[C@H](CCCNC(=N)N)NC(=O)[C@H](CCC(N)=O)NC(=O)[C@@H](NC(=O)[C@H](C)NC(=O)[C@@H]1CSSC[C@H](NC(=O)[C@@H](N)CCCCNC(=O)COCCOCCNC(=O)CC[C@H](NC(=O)CCCCCCCCCCCCCCCCCCC(=O)O)C(=O)O)C(=O)N[C@@H](CC(N)=O)C(=O)N[C@@H]([C@@H](C)O)C(=O)N[C@@H](C)C(=O)N[C@@H]([C@@H](C)O)C(=O)N1)[C@@H](C)O)C(=O)N1CCC[C@H]1C(=O)N[C@@H](CO)C(=O)N[C@@H](CO)C(=O)N[C@H](C(=O)N1CCC[C@H]1C(=O)N[C@H](C(=O)NCC(=O)N[C@@H](CO)C(=O)N[C@@H](CC(N)=O)C(=O)N[C@H](C(=O)N[C@@H](Cc1ccc(O)cc1)C(N)=O)[C@@H](C)O)C(C)C)[C@@H](C)O
notes: also called compound 74
Consider B2, for which the “Ratio hCT/hAmylin binding” value in experiment [1] stood at 101. Besides, the IC50 in experiment [2] was 0.0799 µM.

A word on the IC50: it is the concentration that gives 50% inhibition.

Source of the values: US20140087995A1 (published 2014).
